Laboratory results as given in patent US20260207715A1, “KIT FOR COMBINATION THERAPY OF TUMOR DISEASES AND/OR INFECTIONS” (priority 2022, published 2026).
Entries after “also recorded” stand apart in the source; their conditions may differ.

B1: APIT: FAD-binding L-amino acid oxidase from Aplysia punctata, SEQ ID NO. 1 (protein, listed as Aplysia punctata)
chain: MDGVSRNRRQCNREVCGSTYDVAVVGAGPGGANSAYMLRDSGLDIAVFEYSDRVGGRLFTYQLPNTPDVNLEIGGMRFIEGAMHRLWRVISELGLTPKVFKEGFGKEGRQRFYLRGQSLTKKQVKSGDVPYDLSPEEKENQGNLVEYYLEKLTGLQLNGEPLKREVALKLTVPDGRFLYDLSFDEAMDLVASPEGKEFTRDTHVFTGEVTLDASAVSLFDDHLGEDYYGSEIYTLKEGLSSVPQGLLQAFLDAADSNEFYPNSHLKALRRKTNGQYVLYFEPTTSKDGQTTINYLEPLQVVCAQRVILAMPVYALNQLDWNQLRNDRATQAYAAVRPIPASKVFMTFDQPWWLENERKSWVTKSDALFSQMYDWQKSEASGDYILIASYADGLKAQYLRELKNQGEDIPGSDPGYNQVTEPLKDTILDHLTEAYGVERDSIPEPVTAASQFWTDYPFGCGWITWRAGFHFDDVISTMRRPSLKDEVYVVGADYSWGLISSWIEGALETSENVINDYFL
modifications: FAD cofactor

Legend:
[1] = tested on: NIH3T3 cells spheroids; experiment: Spheroid formation of NIH3T3 cells, propidium iodide staining; assay type: cell-based, murine; settings: 24 hours
Procedure: In this example, immortalized murine fibroblast NIH3T3 cells were specifically chosen for generating spheroids due to their ability to produce a consistently uniform, rounded, and tightly cohesive structure. […] To achieve this, NIH3T3 cells (150,000 cells/mL) were seeded on non-tissue culture treated petri dish coverslips in 10 μL drops. Subsequently, they were treated with camptothecin and compound 4, the latter being activated both with and without H2O2, and were incubated upside down for 24 hours at 37° C. under 5% CO2. Following the incubation period, the spheroids were stained with propidium iodide (0.003 μg per 10,000 cells) for 3 minutes at room temperature. The analysis of these spheroids was conducted using an Axio Observer.Z1 microscope equipped with an A-Plan 10×/0.25 Ph1 objective (Zeiss). The images were recorded with a phase-contrast channel, and a 43 DsRed Reflector (λex=538-562 nm λem=570-640 nm) with a mercury vapor short-arc lamp.

[2] = tested on: ROS (H2O2) production; experiment: Enzymatic activity, production of ROS (H2O2), spectrofluorimetric experimental setup; assay type: biochemical; settings: for enzymatically active: fusion protein; for enzymatic activity, production of ROS (H2O2): spectrofluorimetric experimental setup
From the text: The proteins APIT, the fusion protein zHER2:342-APIT and zHER2:342(K4R/K7A/K27R/K49R/K50A/K58A)-APIT were successfully recombinantly produced and purified. The proteins were verified for identity and purity by mass spectrometry and high-performance liquid chromatography (HPLC) (see FIGS. 3 and 4). Subsequently, both proteins were compared with respect to their enzymatic activity, in particular the production of ROS (H2O2) via a spectrofluorimetric experimental setup. The activity of both species is very similar: • APIT: 80 U/mg, • zHER2:342-APIT: 70 U/mg, • zHER2:342(K4R/K7A/K27R/K49R/K50A/K58A)-APIT: 70 U/mg.

[3] = tested on: HER2-negative cells (MDA-MB-231); experiment: Cell-based HER-2 binding assay on fixed HER2-negative cells (negative control); settings: MDA-MB-231, fixed cells, fluorescent dye labeled protein
Procedure: (§1) Shown are results of cell culture experiments to confirm the selective HER2 binding of the fusion proteins. The fusion proteins zHER2:342-APIT and zHER2:342(K4R/K7A/K27R/K49R/K50A/K58A)-APIT were labeled with fluorescent dye and probed for HER2 binding on fixed cells. Cell nuclei were stained with Hoechst33342.
Right panels: HER2-negative cells (MDA-MB-231).
(§2) HER2 positive BT-474 (ACC 64), adherent cells were cultured in RPMI 1640 containing 20% (v/v) FBS, MEM non-essential amino acids, 1 mM Pyruvate, 10 μg/ml human insulin. HER2-negative MDA-MB-231 (ACC 732) adherent cells were cultured in Leibowitz' L15, 20% FBS. Cells were cultured from frozen stocks and passaged two times prior to the assay. Cells were incubated at 37° C., 5% CO2 humidified. At a confluency of 80% cell passaging was performed by trypsination using 0.25% (w/v) trypsin/0.2% (w/v) EDTA. Cells were seeded at 10 k cells/well on sterilized degreased 4%-gelatin coated cover slides ([…]) in 24-well plates and grown over night in the incubator. Cells were washed with PBS and fixated with freshly made 4% (w/v) paraformaldehyde solution for 30 min. […] Fluorescence signal was imaged using a ZEISS motorized Axio ZI observer fluorescence microscope. Images were analyzed and processed using Zeiss Zen Pro software.

[4] = target: T1, HER2 receptor on HER2-positive cells (BT474 cell line) (Homo sapiens, UniProt P04626); experiment: Cell-based HER-2 binding assay on fixed HER2-positive cells; settings: fluorescent dye labeled protein
T1 construct: host or cells: BT-474 (HER2-positive breast cancer cell line), fixed with 4% paraformaldehyde
From the text: as §1
Left panels: HER2-positive cells (BT474 cell line). Here, the fluorescent dye labeled fusion proteins bind to the HER2 receptor located on the cell membrane.
as §2

[5] = tested on: HER2-positive tumor; experiment: Tumor targeting and biodistribution in mice with HER2-positive and HER2-negative tumor; assay type: in vivo; settings: six hours after exposure, NIR-labelled protein
Procedure: Tumor targeting and biodistribution of (A) zHER2-APIT-NIR and (B) APIT-NIR in mice with HER2-negative tumor (black) and HER2-positive tumor (gray); (whiskers indicate 10-90% percentile values, line in the box is the median; significance was tested with the Mann-Whitney U test, *p<0.05 was considered statistically different; n.s.=not significant; n=6).
Labelling of 1 eq protein was performed with either 6 eq of AlexaFluor680™-maleimide (NIR) or 10 eq of TexasRed-maleimide in PBS containing 50 mM TCEP pH 7.4 at a protein concentration of 1.0 mg/mL overnight. Reaction mixture was purified via HiTrap Q HP using 50 mM Tris pH 8.0 (A) and 50 mM Tris 1 M NaCl pH 8.0 (B) with following method: 30% B for 45 CV, 30-100% B in 30 CV. The eluent was dialyzed in PBS. The degree of label (DOL) was determined according to the manufacturer's instructions using extinctions coefficient of 1.539 mLmg-1 cm-1 for APIT.

Molecule | effect on spheroids [1] | enzymatically active [2] | enzymatic activity, production of ROS (H2O2) [2] [U/mg] | binding to HER2-negative cells [3] | binding to HER2-positive cells [4] | levels in HER2-positive xenografts compared to HER2-negative tissues [5]
CC[C@@]1(O)C(=O)OCc2c1cc1n(c2=O)Cc2cc3ccccc3nc2-1 [camptothecin] | disintegration of spheroids |  |  |  |  | 
zHER2:342-APIT: fusion protein of targeting sequence zHER2:342 and APIT, SEQ ID NO. 4 |  | remain enzymatically active | 70 | not HER2-negative cells | bind to HER2-positive; also recorded: confirmed | 
zHER2-APIT: APIT fused with the zHER2 affibody, AlexaFluor680 (NIR) labelled for biodistribution |  |  |  |  |  | Significantly higher levels
zHER2:342(K4R/K7A/K27R/K49R/K50A/K58A)-APIT: fusion protein of lysine-deleted zHER2:342 mutant and APIT, SEQ ID NO. 5 |  | enzymatically active | 70 | not HER2 negative cells | bind to HER2 positive; also recorded: confirmed | 
B1 |  |  | 80 |  |  | did not show differences
